Assay [1] relates to C. elegans. Description: Healthspan: mobility on solid media and in liquid with age. Format: in vivo, Caenorhabditis elegans. An excerpt: Light treatment began at day 1 of adulthood for all experiments, a, Survival curves of mtON-expressing animals (extrachromosomal array). […] One-way ANOVA with Tukey's test; n=30 animals for day 4 conditions and 40 animals for day 10. […] One-way ANOVA with Tukey's test, day 10 no ATR light versus day 10 ATR light; P=0.002, all other significant comparisons, P=0.0001; n=32, 32, 40 and 40 animals for each violin from left to right. Data are median±quartiles. f, Model showing effects of mtON activation in vivo. The dotted arrow represents the molecular mechanisms to be investigated that link Δψm to aged physiology.

For assay [2], the system named is C. elegans. Put plainly: Lifespan of mtON-expressing worms. Format: in vivo, Caenorhabditis elegans. An excerpt: Light treatment began at day 1 of adulthood for all experiments, a, Survival curves of mtON-expressing animals (extrachromosomal array). […] One-way ANOVA with Tukey's test; n=30 animals for day 4 conditions and 40 animals for day 10. […] The dotted arrow represents the molecular mechanisms to be investigated that link Δψm to aged physiology.
A) survival curve with the same conditions as FIG. 15B, but with light intensity (0.005 mW/cm2) below the threshold for mtON activation (0.01 mW/cm2). […] B) Survival curves of mtON-expressing animals versus mtON-expressing animals in a long-lived genetic background containing a constitutively active AMPK mutation.
Strain APW32 expresses mtON as an extrachromosomal array (mtON ext. chr. array), and strain APW273 expresses mtON in single copy through CRISPR/Cas9 genome integration (mtON CRISPR). See methods section for genotype details. Light intensity was varied to maintain temperature as best as possible, and proximal temperature readings directly adjacent to assay plates are reported to show local temperature variability from different incubators and from different light sources. All incubators were set to 20° C.

For assay [3], the system named is isolated C. elegans mitochondria. Put plainly: Mitochondrial membrane potential measurement (TMRE) in isolated mitochondria. The conditions noted are these: mtON activation (+ATR, +light), rotenone, no added substrate, non-phosphorylating. Format: biochemical, Caenorhabditis elegans. Here is the method:
Isolated mitochondria at 0.5 mg/ml were stirred in mitochondrial respiration buffer (MRB: 120 mM KCl, 25 mM sucrose, 5 mM MgCl2, 5 mM KH2PO4, 1 mM EGTA, 10 mM HEPES, 1 mg/ml FF-BSA, pH 7.35) at 25° C. in the presence of 2 μM rotenone and 5 mM succinate where indicated. 300 nM tetramethylrhodamine ethyl ester (TMRE, Thermo Fisher, T669) was added to observe mitochondrial membrane potential in quench mode. Under quenching conditions, TMRE fluorescence is low in the presence of a AWm. Upon addition of a protonophore (e.g., FCCP), TMRE will exit mitochondria and dequench and increase total fluorescence. TMRE signal was measured by Cary Eclipse Fluorescence Spectrophotometer (Agilent Technologies) using a 335-620 nm excitation filter and a 550-1,100 nm emission. […] Increasing illumination time exposed mitochondria to more photons (calculated as fluence, J/cm^2). […] The average fluorescence intensity after addition of 2 μM FCCP (maximum fluorescence in quench mode) was subtracted from the starting test condition to give a change in fluorescence corresponding to changes in ΔΨm (ΔF for conditions without succinate, and ΔFmax for conditions with succinate). To represent polarization of the ΔWm, the ratio of change in fluorescence (DF, FCCP fluorescence minus experimental fluorescence) was used to the maximum change in fluorescence generated by succinate-driven Δψm (ΔFmax).

A further assay concerns Drosophila melanogaster. Put plainly: Drosophila lifespan. Format: in vivo. The conditions noted are these: activation of mtON (ATR, white light). An excerpt:
(C) White light increases the lifespan of mtON+ATR (red) Drosophila compared to vehicle (ethanol, blue) Drosophila.

The test system of the next assay is CD8+ T cells. Description: CD8+ T cell migration on ICAM-1+CXCL12. Format: cell-based, mouse. As for the experimental part:
The velocity (A), displacement (B), track length (C), meandering index (D), and percent migrating cells (E) of Mock (or GFP) and mtOn expressing Day 4 CD8+ T cells migrating on ICAM-1+CXCL12. The percentage of migrating cells was calculated as the number of cells migrating 5-20 μm/min divided by the total number of cells in the field of view during the 20-minute movie. All movies received 500 nm illumination and were analyzed with Volocity software. All data shown as mean±SEM and analyzed by a two-tailed unpaired t-test with Welch's correction (A-D: includes four independent experiments, Mock: 271 cells, mtOn: 312 cells; E: n=4 movies on the same day). ns, not significant.
After confirming mtON is expressed correctly, there followed additional functional experiments, specifically looking at cell migration in CD8+ T cells expressing mtON (PA-OxPhos). The migration conditions were the same as in previously described experiments, except we now used the Texas Red filter (˜500 nm) on an epifluorescent microscope to activate mtON while CD8+ T cells are migrating on ICAM-1+CXCL12. CD8+ T cells were sorted based on GFP expression and the mock negative control cells were GFP negative. Both mock and mtON expressing CD8+ T cells were treated identically.

The subject of assay [4] is C. elegans. Put plainly: Hypoxia and reoxygenation with hypoxic preconditioning. The settings on record: mtON activation during the short hypoxia (PC). Format: in vivo, Caenorhabditis elegans. Here is the method:
Experiments were carried out using a hypoxic chamber (Coy Laboratory Products, 5%/95% H2/N2 gas, palladium catalyst) at 26° C. with 50-100 animals per plate. O2 was <0.01%. Hypoxic preconditioning (PC) duration was 4 h, and control animals were incubated at 26° C. in room air for the same time. 1 Hz illumination (Quantum LED, 0.02 mW/mm^2) was carried out during PC period or during the hypoxic period. Hypoxic exposure was for 18.5, 21 h after PC. Twenty-four hours after hypoxia exposure, animals that were moving or those that moved in response to a light touch to the head were scored as alive. Data from days where PC was at least 15% effective for both +ATR and −ATR were used. Animals supplemented with ATR were allowed to lay eggs onto plates with no ATR that were subsequently used for HR experiments to minimize confounding effects of ATR. ATR from the parent animal was sufficient to provide active mtON in progeny as tested by the azide toxin assay described above. […] FCCP dissolved in ethanol was deposited onto seeded NGM plates.

B1: mtON: fusion of the 187 N-terminal amino acids of mouse IMMT1 to the light-activated proton pump (Mac) from Leptosphaeria maculans (protein)
chain: MLRACQLSGVTVAAQSCLCGKFVLRPLRPCRRYSTSSSSGLTAGKIAGAGLLFVGGGIGGTILYAKWDSHFRESVEKTIPYSDKLFGMVLGSAPYTVPLPKKPVQSGPLKISSVSEVMKDSKLPVAQSQKTKGDTPASAASTGAAQIISAAGDTLSVPAPAVQHEDTIKTECPNTNEGKSTSETTEEPAGLIVDQFEEVLMKTSQLFPLPTATQSAQPTHVAPVPTVLPDTPIYETVGDSGSKTLWVVFVLMLIASAAFTALSWKIPVNRRLYHVITTIITLTAALSYFAMATGHGVALNKIVIRTQHDHVPDTYETVYRQVYYARYIDWAITTPLLLLDLGLLAGMSGAHIFMAIVADLIMVLTGLFAAFGSEGTPQKWGWYTIACIAYIFVVWHLVLNGGANARVKGEKLRSFFVAIGAYTLILWTAYPIVWGLADGARKIGVDGEIIAYAVLDVLAKGVFGAWLLVTHANLRESDVELNGFWANGLNREGAIRIGEDDGAR
modifications: Synthetic Complete mtON fusion protein sequence
For B1, the “locomotion on solid media” value with C. elegans [1] (day 4 and day 10, mtON activation) was “did not affect locomotion”. In addition, the “mobility in liquid with age” value in the assay on C. elegans [1] (day 10, mtON activation) is given as “improved mobility”. Moreover, the lifespan result was “significantly extended lifespan compared to the light control” with C. elegans [2] (CRISPR insertion, vs light control); “significantly extended lifespan” with C. elegans [2] (extrachromosomal array, +ATR+light from day 1 of adulthood); “not extended” in the assay with C. elegans [2] (light below the threshold to activate mtON (0.005 mW/cm2)); “further increased lifespan” in the assay with C. elegans [2] (long-lived worms with constitutively active AMPK signaling); “significant increase in lifespan” with C. elegans [2] (mtON activation throughout life vs control populations); “extends Drosophila lifespan” with Drosophila melanogaster. The “light intensity threshold for mtON activation” value in the assay with C. elegans [2] (in vivo) is on record as 0.01 mW/cm2. The “lifespan extension in presence of FCCP” value in the assay with C. elegans [2] (mtON activation plus mitochondrial uncoupler FCCP) is on record as “sensitive”. Also, in assay [3], the “polarization of Δψm (TMRE)” value is on record as “polarize the Δψm as much as ETC-driven respiration”. Besides, in the assay on CD8+ T cells (vs cells expressing GFP), the “overall percentage of migrating CD8+ T cells” value is “large increase”. Besides, the cell displacement entry in the assay on CD8+ T cells (~500 nm illumination, vs mock) is “increase”. In addition, the cell velocity entry in the assay on CD8+ T cells (~500 nm illumination, vs mock) is reported as “increase”. Besides, the meandering index result with CD8+ T cells (~500 nm illumination, vs mock) is reported as “increase”. Also, in the assay on C. elegans [4], the “protection conferred by hypoxic preconditioning” value was “suppressed”.

For the origin of these results see US20260167679A1, “FUSION PROTEIN TARGETING MITOCHONDRIA, METHOD OF MAKING AND USE THEREOF” (UNIVERSITY OF ROCHESTER, priority 2020, published 2026).
